Patent US20220356228A1 (ICAHN SCHOOL OF MEDICINE AT MOUNT SINAI, published 2022)
Substitutions are numbered along the chain they refer to.

B1: 1H10 (antibody, V domains shown)
VH: EVQLLESGGGLVQPGGSLRLSCAASGFTLSTYAMSWVRQAPGKGLEWVSAISGTGLSTYYADSLKGRFTISRDISKNTLYLQMSSLKAEDTAVYYCAKGLELFYFYYGMDVWGQGTTVTVSS
VL: EIVLTQSPGTLSLSPGERATLSCRASQSVSSTYLAWYQQKPGQAPRLLIYGTSSRATGIPDRFSGSGSGTDFTLTISRLEPEDLAVYYCQQYGRSLIFGQGTRLEIK
B2: 4D11 (antibody, V domains shown)
VH: QVQLVESGGGLVKPGGSLRLSCAGSGFTFSDHYMSWIRQAPGKGLEWVSYISTSGRTIYYADSVKGRFTISRDNAKNSLYLQMNSLRAEDTAVYYCASDYYDNSGWYYWGQGTLVTVSS
VL: not shown
B3: 1H1 (antibody, V domains shown)
VH: B2 VH with G24A, H32F, K43M, T53F, T57A, K65R, R87S, S104V, Y107D, Q111P
VL: not shown
B4: 4E2 (antibody, V domains shown)
VH: B2 VH with G24A, H32F, K43M, T53F, T57A, K65R, R87S, S104V, Y107D, Q111P
VL: not shown
B5: 1A3 (antibody, V domains shown)
VH: B2 VH with G24A, G26E, F27I, H32Y, V48I, Y60F, E89D, Y100F, Y107E
VL: DVVMTQSPLSLSVTLGQPASISCRSSQSLVYSDGNTYLNWFQQRPGQSPRRLIYKVSDRDSGVPDRFSGSGSGTDFTLKISRAEAEDVGVYYCMQGTHWPRTFGQGTKVEIK
B6: 1F11 (antibody, V domains shown)
VH: B2 VH with G24A, H32L, S98G, Y107D, Q111R
VL: not shown
B7: 1E12 (antibody, V domains shown)
VH: B2 VH with A23T, G24A, S54G, S104V, Y107D
VL: B5 VL with M4L, S12P, V30I, A83V
B8: 2A11 (antibody, V domains shown)
VH: B2 VH with G24A, A61V, T91M, S104V, Y107N, T113A
VL: B5 VL with M4L, S12P, S61F, A83V, V90I
B9: 1E8 (antibody, V domains shown)
VH: B2 VH with G24A, R56S, Y107N
VL: B5 VL with S12P, K79R, A83V, T97S
B10: 3D2 (antibody, V domains shown)
VH: QVQLQQWGAGLLKPSETLSLTCAVFGGSFSSYYWSWIRHPPGKGLEWIGDINHSGSTNYNPSLKSRVTLSVDTSKNQFSLKVTSVTAADTAVYYCARWGIAADYGMDVWGQGTTVTVSS
VL: EIVLTQSPGTLSLSPGERATLSCRASQSVSSSYLAWYQQKPGQAPRLLIYGASSRATGIPDRFSDSGSGTDFTLTISRLEPEDFALYYCQQYGTSPWTFGQGTKVEIK
B11: 2A6 (antibody, V domains shown)
VH: QVQLQQWGAGLLKPSETLSLTCAVYGGSFSGYYWSWIRQPPGKGLEWIGDINHGGSTNYNPSLKSRVIISVDTSKNQFSLKLSSVTAADTALYYCARGWGGQVAHWFDPWGQGTLGTVSS
VL: DIVMTQSPDSLALSLGERATINCKSSQSVLFSSNNQNYLAWYQQKPGQPPKLLIYWASTRESGVPDRFSGSGSGTDFTLTVSSLQAEDVAVYFCQQYYSLPYTFGQGTKLEIK
B12: 1A7 (antibody, V domains shown)
VH: QVQLVQSGAEVKKPGASVKVSCKASGYTFTFYDINWVRQATGQGLEWMGWMNPNSGNTGYAQNFQGRVTMTRNTSINTAYLELSSLRSEDTAVYYCARKIWVGHTTFDRWGQGTLVTVSS
VL: AIQMTQSPSSLSASVGDRVTITCRASQSISGYLNWYQQKPGKAPNLLIYAASNLQSGVPSRFSGSGSGTDFTLTISSLQREDFAPYYCQQTYNIPFTFGGGTKVEIK
B13: 8A7 (antibody, V domains shown)
VH: QVQLQESGPGLVKPSETLSLTCTVSGGSISSNYWNWIRQPPGKGLEWIGYIYYSGSTNYNPSLKSRVTISVDTSKNQFSLKLSSVTAADTAVYYCARRGFEQQLSYYYYYGLDVWGQGTTVTVSS
VL: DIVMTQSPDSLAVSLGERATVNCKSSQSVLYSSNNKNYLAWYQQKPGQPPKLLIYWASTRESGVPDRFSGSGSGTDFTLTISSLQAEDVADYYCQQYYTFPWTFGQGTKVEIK

The binders below were run against T1, JCV major capsid protein VP1, wild type (John Cunningham virus (JCV), UniProt P03089 1-354) (assay: cell-based or functional assay).
B1 was tested, and the “Neutralization of wild type JCV, EC50 [pM]” value was 155 pM.
B2 was tested, and the “Neutralization of wild type JCV, EC50 [pM]” value was 124 pM.
In the case of B3, the “Neutralization of wild type JCV, EC50 [pM]” value is reported as 182 pM.
For B4, the “Neutralization of wild type JCV, EC50 [pM]” value was 160 pM.
With B5 the “Neutralization of wild type JCV, EC50 [pM]” value was 301 pM.
In the case of B6, the “Neutralization of wild type JCV, EC50 [pM]” value is reported as 111 pM.
B7 was tested, and the “Neutralization of wild type JCV, EC50 [pM]” value was 16 pM.
In the case of B8, the “Neutralization of wild type JCV, EC50 [pM]” value is reported as 146 pM.
With B9 the “Neutralization of wild type JCV, EC50 [pM]” value was 127 pM.
In the case of B10, the “Neutralization of wild type JCV, EC50 [pM]” value is reported as 2250 pM.
B11 was tested, and the “Neutralization of wild type JCV, EC50 [pM]” value was 2710 pM.
With B12 the “Neutralization of wild type JCV, EC50 [pM]” value was 180 pM.

These binders were tested against T2, JCV VP1 mutant L55F (John Cunningham virus (JCV), UniProt P03089 1-354) (assay: cell-based or functional assay).
B2 was tested, and the “Neutralization of JCV L55F: EC50 [pM]” value was 245 pM.
In the case of B5, the “Neutralization of JCV L55F: EC50 [pM]” value is reported as 6600 pM.
B6 was tested, and the “Neutralization of JCV L55F: EC50 [pM]” value was 76 pM.
B7 was tested, and the “Neutralization of JCV L55F: EC50 [pM]” value was 56.7 pM.
With B8 the “Neutralization of JCV L55F: EC50 [pM]” value was 45.5 pM.
B9 was tested, and the “Neutralization of JCV L55F: EC50 [pM]” value was 3380 pM.

The binders below were run against T3, JCV VP1 mutant S269F (John Cunningham virus (JCV), UniProt P03089 1-354) (assay: cell-based or functional assay).
With B1 the “Neutralization of JCV S269F: EC50 [pM]” value was 20.9 pM.
With B2 the “Neutralization of JCV S269F: EC50 [pM]” value was 12.7 pM.
In the case of B3, the “Neutralization of JCV S269F: EC50 [pM]” value is reported as 55.3 pM.
In the case of B4, the “Neutralization of JCV S269F: EC50 [pM]” value is reported as 30 pM.
In the case of B5, the “Neutralization of JCV S269F: EC50 [pM]” value is reported as 37.3 pM.
With B6 the “Neutralization of JCV S269F: EC50 [pM]” value was 53 pM.
For B7, the “Neutralization of JCV S269F: EC50 [pM]” value was 105 pM.
B8 was tested, and the “Neutralization of JCV S269F: EC50 [pM]” value was 250 pM.
For B9, the “Neutralization of JCV S269F: EC50 [pM]” value was 55.3 pM.
B10 was tested, and the “Neutralization of JCV S269F: EC50 [pM]” value was 733 pM.
In the case of B12, the “Neutralization of JCV S269F: EC50 [pM]” value is reported as 7 pM.

These binders were tested against T1, JCV major capsid protein VP1, wild type (assay: ELISA, plates coated with pseudovirus, purified antibody).
With B1 the “AB conc. (lowest concentration of antibody that gave a clear signal above background)” value was under 22 ng/mL and the EC50 was 19.3 ng/mL.
With B2 the “AB conc. (lowest concentration of antibody that gave a clear signal above background)” value was under 2.5 ng/mL and the EC50 was 1.9 ng/mL.
B3 was tested, and the “AB conc. (lowest concentration of antibody that gave a clear signal above background)” value was under 2.5 ng/mL and the EC50 was 6.5 ng/mL.
With B4 the “AB conc. (lowest concentration of antibody that gave a clear signal above background)” value was under 7.4 ng/mL and the EC50 was 11.7 ng/mL.
B5 was tested, and the “AB conc. (lowest concentration of antibody that gave a clear signal above background)” value was under 2.5 ng/mL and the EC50 was 7.1 ng/mL.
With B6 the “AB conc. (lowest concentration of antibody that gave a clear signal above background)” value was under 7.4 ng/mL and the EC50 was 9.4 ng/mL.
B7 was tested, and the “AB conc. (lowest concentration of antibody that gave a clear signal above background)” value was under 7.4 ng/mL and the EC50 was 8.4 ng/mL.
In the case of B8, the “AB conc. (lowest concentration of antibody that gave a clear signal above background)” value is reported as under 7.4 ng/mL and the EC50 is reported as 7.4 ng/mL.
For B9, the “AB conc. (lowest concentration of antibody that gave a clear signal above background)” value was under 2.5 ng/mL and the EC50 was 8 ng/mL.
B10 was tested, and the “AB conc. (lowest concentration of antibody that gave a clear signal above background)” value was under 67 ng/mL and the EC50 was 393 ng/mL.
With B11 the “AB conc. (lowest concentration of antibody that gave a clear signal above background)” value was under 200 ng/mL and the EC50 was 1300 ng/mL.
B12 was tested, and the “AB conc. (lowest concentration of antibody that gave a clear signal above background)” value was under 22 ng/mL and the EC50 was 24.7 ng/mL.
Work on B13 yielded an EC50 of 8.5 ng/mL.

Each binder was assayed against T2, JCV VP1 mutant L55F in the same assay as above.
In the case of B2, the “AB conc. (lowest concentration of antibody that gave a clear signal above background)” value is reported as under 2.5 ng/mL and the EC50 is reported as 7.7 ng/mL.
In the case of B3, the “AB conc. (lowest concentration of antibody that gave a clear signal above background)” value is reported as under 2.5 ng/mL and the EC50 is reported as 14.7 ng/mL.
B4 was tested, and the “AB conc. (lowest concentration of antibody that gave a clear signal above background)” value was under 2.5 ng/mL and the EC50 was 13.2 ng/mL.
B5 was tested, and the “AB conc. (lowest concentration of antibody that gave a clear signal above background)” value was under 2.5 ng/mL and the EC50 was 14.3 ng/mL.
B6 was tested, and the “AB conc. (lowest concentration of antibody that gave a clear signal above background)” value was under 7.4 ng/mL and the EC50 was 14.3 ng/mL.
B7 was tested, and the “AB conc. (lowest concentration of antibody that gave a clear signal above background)” value was under 2.5 ng/mL and the EC50 was 7.7 ng/mL.
B8 was tested, and the “AB conc. (lowest concentration of antibody that gave a clear signal above background)” value was under 7.4 ng/mL and the EC50 was 13.6 ng/mL.
In the case of B9, the “AB conc. (lowest concentration of antibody that gave a clear signal above background)” value is reported as under 22 ng/mL and the EC50 is reported as 46.5 ng/mL.
B10: no binding (tested: 2.5 ng/ml to 200 ng/ml).
B11: no binding (tested: 2.5 ng/ml to 200 ng/ml).
B12: no binding (tested: 2.5 ng/ml to 200 ng/ml).

The binders below were run against T3, JCV VP1 mutant S269F in the same assay as above.
B1 was tested, and the “AB conc. (lowest concentration of antibody that gave a clear signal above background)” value was under 7.4 ng/mL and the EC50 was 18.5 ng/mL.
For B2, the “AB conc. (lowest concentration of antibody that gave a clear signal above background)” value was under 2.5 ng/mL and the EC50 was 6.9 ng/mL.
With B3 the “AB conc. (lowest concentration of antibody that gave a clear signal above background)” value was under 2.5 ng/mL and the EC50 was 7.5 ng/mL.
In the case of B4, the “AB conc. (lowest concentration of antibody that gave a clear signal above background)” value is reported as under 2.5 ng/mL and the EC50 is reported as 7.1 ng/mL.
For B5, the “AB conc. (lowest concentration of antibody that gave a clear signal above background)” value was under 2.5 ng/mL and the EC50 was 8 ng/mL.
In the case of B6, the “AB conc. (lowest concentration of antibody that gave a clear signal above background)” value is reported as under 2.5 ng/mL and the EC50 is reported as 7.6 ng/mL.
With B7 the “AB conc. (lowest concentration of antibody that gave a clear signal above background)” value was under 7.4 ng/mL and the EC50 was 8.5 ng/mL.
B8 was tested, and the “AB conc. (lowest concentration of antibody that gave a clear signal above background)” value was under 2.5 ng/mL and the EC50 was 6.8 ng/mL.
In the case of B9, the “AB conc. (lowest concentration of antibody that gave a clear signal above background)” value is reported as under 2.5 ng/mL and the EC50 is reported as 22 ng/mL.
In the case of B10, the “AB conc. (lowest concentration of antibody that gave a clear signal above background)” value is reported as under 22 ng/mL and the EC50 is reported as 121 ng/mL.
B11 was tested, and the “AB conc. (lowest concentration of antibody that gave a clear signal above background)” value was under 22 ng/mL and the EC50 was 147 ng/mL.
With B12 the “AB conc. (lowest concentration of antibody that gave a clear signal above background)” value was under 2.5 ng/mL and the EC50 was 7.4 ng/mL.
